The text below walks through data of the supplement of paper PMC9170038.

The test system of the series is K4 kissing-loop RNA reporter. The experiment in a line: apparent KD of K4 kissing-loop reporter; higher = weaker reporter binding. To be noted: Eterna round: R107. The method, then:
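RNA-MaP round R107: designed RNA switches with theophylline, tryptophan, arginine or FMN aptamers are transcribed on-chip within common flanks. They are titrated with a labelled K4 kissing-loop RNA reporter in RNA-MaP buffer (100 mM Tris pH 7.5, 80 mM KCl, 4 mM MgCl2), without ligand or with the indicated ligand. Median apparent KD per design.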

Setting [1] is: input ligand: theophylline 20 uM.
Where [2] appears, read: input ligand: tryptophan 2.4 mM.
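Note: bound reporter read as fluorescence of individual clusters on recovered sequencing chips by microscopy, with normalized cluster intensities fitted with a binding model.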

With “UCGAGUUGACGAAAAGUCAACUCGUGAGAUACCAGUGACGAAAGUCACCCUUGGCAGCUCACUGCCAGUGAUGUUGGUGUAUAGA [#06 K4 Theophylline A Same State]”, the “apparent KD of K4 kissing-loop reporter” value is, setting by setting: (input ligand: FMN 200 uM) 856 nM; (input ligand: arginine 13.2 mM) 840 nM; (input ligand: none) 1030 nM; under setting [1], 996 nM; under setting [2], 955 nM.
The like results for “UCGGCGUACGGGCGGGUAGUGAUGUUGCUCCGAGGACCGGUACGGCCGCCACUCGAGGUACCAGUUCAUAGAACCUGGCACAUCA [theeternabot_exclusion_KL_Trp_A_23]” were, in that order, 409 nM, 296 nM, 541 nM, 261 nM and 266 nM.
As for “UCGGUAUAGUGAUGUUAUAUAGAGAGUGAUACCAGUUUAGAGAGAAACCCUUGGCAGCAUAGAAGAGUAUCAUUGGAGGAGGAGG [#20 K4 Theophylline A Exclusion]”, the “apparent KD of K4 kissing-loop reporter” value stood at 455 nM (input ligand: FMN 200 uM); 417 nM (input ligand: arginine 13.2 mM); 387 nM (input ligand: none); 336 nM under setting [1]; 301 nM under setting [2].
The matching figures for “UCUAACAAAUCGGCCGCCACUGAAAUAACCCAGGAGUGAUGUUCCAUCGUCCUAGACUACUCUUCCAGGACCGGGAUCUGUGUUC [theeternabot_exclusion_KL_Trp_B_25]”: 298 nM, 348 nM, 529 nM, 472 nM and 284 nM.
The like results for “UCUAGUUCUACGGCCGCCACUAUCGAGCACGGGUAUUAGUGAUGUUGAGGUCGUGUCUCCCUCCCUAGGACCGGGUAGAUCUUAG [theeternabot_sameState_KL_Trp_B_4]” were, in that order, 890 nM, 482 nM, 667 nM, 629 nM and 557 nM.
As to “UCUCGGGCCAGUGAUGUUGGCGGCUAGUGGCGAGGACCGGUACGGCCGCCACUCGGCGCAGCAGCGGAGUGAUGUUUCGUGAGUA [Same State Tryptophan A GF 17]”, the “apparent KD of K4 kissing-loop reporter” value is, setting by setting: (input ligand: FMN 200 uM) 363 nM; (input ligand: arginine 13.2 mM) 301 nM; (input ligand: none) 377 nM; under setting [1], 441 nM; under setting [2], 198 nM.
Turning to “UCUGGAGCAUAUGAUACCAGCAGUGAGAGACAGGAAGUAUAGUGAUGUUAUAUGAGAGAAUGCCCUUGGCAGCGUGUGCAGUGGG [SSTheophylB.O]”, the “apparent KD of K4 kissing-loop reporter” value was found to be 119 nM (input ligand: FMN 200 uM); 157 nM (input ligand: arginine 13.2 mM); 108 nM (input ligand: none); 119 nM under setting [1]; 75.2 nM under setting [2].
Turning to “UCUGGUAUAUCUGAUACCAGAGUAUAGUAUCAAUUGCAUAUGGAGUGAUGUUCCAUACAACUCCCUUGGCAGCAGAUCUAUCUCU [Same State Theophylline B GF 24]”, the “apparent KD of K4 kissing-loop reporter” value (input ligand: FMN 200 uM) was determined as 219 nM; the “apparent KD of K4 kissing-loop reporter” value (input ligand: arginine 13.2 mM) was determined as 249 nM; the “apparent KD of K4 kissing-loop reporter” value (input ligand: none) came out at 246 nM; the “apparent KD of K4 kissing-loop reporter” value under setting [1] was 286 nM; the “apparent KD of K4 kissing-loop reporter” value under setting [2] amounted to 195 nM.
The matching figures for “UCUGUACCGGGAAGGAGCGUGAAUGAGAAUGGAUAUAGUGAUGUUAUGUAUACGAACGAAUCGCAGGUAGGUCGCCCGGAUCCCU [SSArgB.aA]”: 674 nM, 380 nM, 653 nM, 474 nM and 467 nM.
The like results for “UCUUGAGUAUAUGAUACCAGCAGUGAGAGACAGGAAGUAUAGUGAUGUUAUAUGAGAGAAUGCCCUUGGCAGCGUGUGCGGUGGG [SSTheophylB.S]” were, in that order, 103 nM, 144 nM, 112 nM, 187 nM and 94.7 nM.
In the case of “UGACUGGACUGAAGGAGCGCGAAACUCCUAGUGAUGUUAGGAUAACGAGACAAAGUCUCGACGCAGGUAGGUCGCAGUCUAGUCU”, the “apparent KD of K4 kissing-loop reporter” value is, setting by setting: (input ligand: FMN 200 uM) 130 nM; (input ligand: arginine 13.2 mM) 92.6 nM; (input ligand: none) 116 nM; under setting [1], 119 nM; under setting [2], 120 nM.
The matching figures for “UGACUGGAUGGAAGGAGCGCUAAACUCCUAGUGAUGUUAGGGACACGAGGCAAAGCCUCGAAGCAGGUAGGUCGCCAUCUAGUCU [FiskerMod 22 - Jieux - Same State - Arginine B]”: 184 nM, 148 nM, 174 nM, 182 nM and 167 nM.
As to “UGAUAAAGCAGUGAUGUUGCAAGUAAUGAUACCAGUUAAGAAGAGAACCCUUGGCAGCAUAAAGUGCGCUCUGAUGAGUGUGCUU [whbob_SS_Theo_A_w52]”, the “apparent KD of K4 kissing-loop reporter” value by setting is: (input ligand: FMN 200 uM) 96.7 nM; (input ligand: arginine 13.2 mM) 130 nM; (input ligand: none) 111 nM; under setting [1], 152 nM; under setting [2], 95.6 nM.
The matching figures for “UGAUACCAGACGGCCGCCACUAGAGCUAGCAAAGCUAGCAAGUGAUGUUUGAGGAGUGAUGUUCCUAGGACCGGGUCUGGUAUCU [TrypBX 2 #Palindromic #SwitchBubble #StaticStem]”: 103 nM, 85.5 nM, 96.2 nM, 86.8 nM and 39.9 nM.
With “UGAUACCAGACGGCCGCCACUCCUGCAAGUCAAAGACUUGCUAAAAGGAUCGUCCAGUGAUGUUGGAGGACCGGGUCUGGUAUCU [TrypBX 19 #SwitchBubble #Palindromic #StaticStem]”, the “apparent KD of K4 kissing-loop reporter” value is, setting by setting: (input ligand: FMN 200 uM) 795 nM; (input ligand: arginine 13.2 mM) 621 nM; (input ligand: none) 744 nM; under setting [1], 638 nM; under setting [2], 486 nM.
In the case of “UGAUACCAGACGGCCGCCACUGGGACCGGGAGUGAUGUUCCAAAUAAAAGAAGCUCGGCCGCCACUAGGACCGGGUCUGGUAUCU [TrypBX 21 #DoubleAptamer #SwitchBubble]”, the “apparent KD of K4 kissing-loop reporter” value (input ligand: FMN 200 uM) worked out at 395 nM; the “apparent KD of K4 kissing-loop reporter” value (input ligand: arginine 13.2 mM) turned out to be 261 nM; the “apparent KD of K4 kissing-loop reporter” value (input ligand: none) turned out to be 339 nM; the “apparent KD of K4 kissing-loop reporter” value under setting [1] came to 367 nM; the “apparent KD of K4 kissing-loop reporter” value under setting [2] was 182 nM.
In the case of “UGAUACCAGACGGCCGCCACUGGUGCAUGUCAAAGACAUGCUAACCAAAUCGUGGAGUGAUGUUCCAGGACCGGGUCUGGUAUCU [TrypBX 22 #SwitchBubble #Palindromic #StaticStem]”, the “apparent KD of K4 kissing-loop reporter” value came out at 235 nM (input ligand: FMN 200 uM); 207 nM (input ligand: arginine 13.2 mM); 217 nM (input ligand: none); 239 nM under setting [1]; 570 nM under setting [2].
The like results for “UGAUACCAGACUGAUACCAGCCAGUGAUGUUGGCUAAAACCAAAAGCUGGCAAAGCCAGCGGCCCUUGGCAGCAGUCUGGUAUCU [TheoBX 1 #SwitchBubble #StaticStem]” were, in that order, 816 nM, 694 nM, 806 nM, 1010 nM and 667 nM.
The like results for “UGAUACCAGACUGAUACCAGCGAGUGAUGUUUGCUGAAAUCAGGGUCAAAGACCCUGUCUCGCCCUUGGCAGCAGUCUGGUAUCU [TheoBX 21 #SwitchBubble #StaticStem]” were, in that order, 735 nM, 601 nM, 754 nM, 223 nM and 688 nM.
As to “UGAUACCAGGCGGCCGCCACUCCCGCAGGUCAAAGACCUGCGAAGCUGGUUCUCCAGUGAUGUUGGAGGACCGGGCCUGGUAUCU [FiskerMod 26 - Jieux - Exclusion - Tryptophan B]”, the “apparent KD of K4 kissing-loop reporter” value (input ligand: FMN 200 uM) came to 191 nM; the “apparent KD of K4 kissing-loop reporter” value (input ligand: arginine 13.2 mM) was 141 nM; the “apparent KD of K4 kissing-loop reporter” value (input ligand: none) is 152 nM; the “apparent KD of K4 kissing-loop reporter” value under setting [1] stood at 168 nM; the “apparent KD of K4 kissing-loop reporter” value under setting [2] came out at 436 nM.
In the case of “UGAUACCAGGCGGCCGCCACUCCUACAGGUCAAAGACCUGUAAAACUGGUUUUUUAGUGAUGUUGGAGGACCGGGCCUGGUAUCU [FiskerMod 28 - Jieux - Exclusion - Tryptophan B]”, the “apparent KD of K4 kissing-loop reporter” value is 181 nM (input ligand: FMN 200 uM); 108 nM (input ligand: arginine 13.2 mM); 178 nM (input ligand: none); 183 nM under setting [1]; 177 nM under setting [2].
